Data reported in the supplement of paper PMC12764529.
± gives the half width of the 95% confidence interval.

Legend:
[1] = folding stability dG unfold (combined trypsin and chymotrypsin); higher = more stable
Method in brief: (§1)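 Only designs with AlphaFold2 dimer inter-PAE above 15 were retained; each was a mini-protein under 80 residues with no cysteine, in a PA-tagged cDNA display construct. After digestion with trypsin and chymotrypsin and sequencing, K50 was inferred by Bayesian fitting of counts, and unfolding free energy was derived per protease or combined against a sequence-predicted unfolded-state K50 and a shared folded-state K50.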

[2] = folding stability dG unfold from trypsin proteolysis; higher = more stable
Method in brief: as §1

[3] = folding stability dG unfold from chymotrypsin proteolysis; higher = more stable
Method in brief: as §1

SAGGSPTIKLEILLPKEMTPEEVEALARELEEAGYEIVSIKVETVKDEDGREWVRVTITLRPKEDLSAGGSA [r2_442_TrROS_Hall]
folding stability dG unfold [1]: 3.73 ± 0.092 kcal/mol
folding stability dG unfold [2]: 3.21 ± 0.076 kcal/mol
folding stability dG unfold [3]: 3.97 ± 0.045 kcal/mol

SAGGSPTREVVLPTKDPTADKAFYTVRITLTEPPSNSTAVTVTFLDLPPDVEPSPELVAAVEAALSSAGGSA [r2_7_JUSTAS]
folding stability dG unfold [1]: 0.495 ± 0.056 kcal/mol
folding stability dG unfold [2]: 0.46 ± 0.036 kcal/mol
folding stability dG unfold [3]: 0.436 ± 0.13 kcal/mol

SAGGSPVYKVEIRMTIVDKNGTVKSIVNLELTFKTEEEIEKFLESIPKETVVEIEIEKRTVEPPEKLSAGGS [r16_677_JUSTAS]
folding stability dG unfold [1]: 1.41 ± 0.11 kcal/mol
folding stability dG unfold [2]: 2.12 ± 0.055 kcal/mol
folding stability dG unfold [3]: 0.699 ± 0.068 kcal/mol

SAGGSQEELAKQLAEELAKKEGLKEVKVSITPSPGPVLNITFEFYDENGNKKGVKSKTIPLPPDLLSAGGSA [r2_153_JUSTAS]
folding stability dG unfold [1]: 0.515 ± 0.53 kcal/mol
folding stability dG unfold [2]: 1.06 ± 0.11 kcal/mol
folding stability dG unfold [3]: 0.0811 ± 0.15 kcal/mol

SAGGSSEIVELKSIEKKGNSVILTLESKTNDYKVVVVIEGNKIRAYVFDKNGNIIAEFEFDGHPYLSAGGSA [r2_437_TrMRF]
folding stability dG unfold [1]: 3.15 ± 0.15 kcal/mol
folding stability dG unfold [2]: 2.41 ± 0.11 kcal/mol
folding stability dG unfold [3]: 3.34 ± 0.046 kcal/mol

SAGGSSIKIEKIEKHENGVKIDISVPDLSNEEEINAVKKKLAEELGLKEEDVEVSLKSENIPLPPSIGSAGG [r13_430_JUSTAS]
folding stability dG unfold [1]: 1.75 ± 0.22 kcal/mol
folding stability dG unfold [2]: 0.474 ± 0.11 kcal/mol
folding stability dG unfold [3]: 2.32 ± 0.21 kcal/mol

SAGGSSIKIPNPNGYEIEIEVTPDRAKIKWRMPGKEQEQEFPPGEDVTIRFPDGMPLTIKIPPPGESAGGSA [r2_57_TrROS]
folding stability dG unfold [1]: 0.424 ± 0.13 kcal/mol
folding stability dG unfold [2]: 0.456 ± 0.089 kcal/mol
folding stability dG unfold [3]: 0.154 ± 0.26 kcal/mol

SAGGSSKTEIYYNPKKPYFLIKVTYKNGKTKEYPIKGKGMSLEELKKKAEEIVKELNSEEFKEVVFNPSAGG [r13_267_TrMRF]
folding stability dG unfold [1]: 2.53 ± 0.14 kcal/mol
folding stability dG unfold [2]: 2.02 ± 0.12 kcal/mol
folding stability dG unfold [3]: 2.5 ± 0.082 kcal/mol

SAGGSSMKTSETTDPANGTPVRVETSIDPATNKVTTTVTTPDGTTVGSGTITIPPESSVTTTTTTTTPASAG [r5_747_JUSTAS]
folding stability dG unfold [1]: 1.21 ± 0.11 kcal/mol
folding stability dG unfold [2]: 0.793 ± 0.079 kcal/mol
folding stability dG unfold [3]: 1.49 ± 0.091 kcal/mol

SAGGSSMRKLIIIGPEGVTLERPIGPERTVEDVKAEWEAIGNVKFEEYPETGEVVVYLPEEALKEKSAGGSA [r2_164_JUSTAS]
folding stability dG unfold [1]: 1.22 ± 0.08 kcal/mol
folding stability dG unfold [2]: 0.601 ± 0.054 kcal/mol
folding stability dG unfold [3]: 1.47 ± 0.029 kcal/mol

SAGGSSPPGVKVEVTVEVTYIPSKGGYKLTFYRPGGEKVDTKELEKDKLEEAKEELKAKGFDVVKIKKSAGG [r13_765_JUSTAS]
folding stability dG unfold [1]: 0.347 ± 0.21 kcal/mol
folding stability dG unfold [2]: -0.402 ± 0.41 kcal/mol
folding stability dG unfold [3]: 0.882 ± 0.18 kcal/mol

SAGGSSSMVTRTPSTSTVTVKRGNGPVTVSLPTTVVTRPDGSRTLETTVDTKDPAGNPAATTVTPAPSAGGS [r16_581_JUSTAS]
folding stability dG unfold [1]: 0.643 ± 0.093 kcal/mol
folding stability dG unfold [2]: 0.0362 ± 0.1 kcal/mol
folding stability dG unfold [3]: 0.98 ± 0.048 kcal/mol

SAGGSSSSTSTRIDPTTGEWVTSTSSFPVPPAPPYIEVRLDVPPEEAEALREKLLAEHPDLPVRLEASAGGS [r8_437_JUSTAS]
folding stability dG unfold [1]: 0.636 ± 0.072 kcal/mol
folding stability dG unfold [2]: 0.336 ± 0.023 kcal/mol
folding stability dG unfold [3]: 0.74 ± 0.029 kcal/mol

SAGGSSSTPVSSSTFTTPDGVTVSVTTTLEPDASGNPYTVTTETFPDGTVTTTTYRNGETQTTTVASAGGSA [r2_182_JUSTAS]
folding stability dG unfold [1]: 1.34 ± 0.088 kcal/mol
folding stability dG unfold [2]: 1.28 ± 0.041 kcal/mol
folding stability dG unfold [3]: 1.33 ± 0.11 kcal/mol

SAGGSSSVGVDSSDPEKTKEAILKAYGTDAEPVFTTDPATGRLTITVPETGDVHTVTAGTRTETAASAGGSA [r2_205_JUSTAS]
folding stability dG unfold [1]: 0.801 ± 0.085 kcal/mol
folding stability dG unfold [2]: 1.27 ± 0.042 kcal/mol
folding stability dG unfold [3]: 0.224 ± 0.068 kcal/mol

SAGGSSVSSVTLLSSETYTEGEKTFKRTTYLVPLPDGTTAIVTTEETTPPENPPEVEVSSSTTPLPGSAGGS [r16_121_JUSTAS]
folding stability dG unfold [1]: 1.63 ± 0.086 kcal/mol
folding stability dG unfold [2]: 1.25 ± 0.044 kcal/mol
folding stability dG unfold [3]: 1.78 ± 0.093 kcal/mol

SAGGSTTVTIETYESEKFPNGSFKTSTKKIVITNTLSPDEELTLPNGKKIPASLSAEEIAEAILKSESAGGS [r16_440_JUSTAS]
folding stability dG unfold [1]: 0.151 ± 0.098 kcal/mol
folding stability dG unfold [2]: -0.849 ± 0.23 kcal/mol
folding stability dG unfold [3]: 0.522 ± 0.11 kcal/mol

SAGGSTVKTITLEFTRDPSTGAITEAEAEIERLKNDPNWEVTDPTITPLPDGTVKVPAKVKIPSNANLSAGG [r13_428_JUSTAS]
folding stability dG unfold [1]: 0.075 ± 0.23 kcal/mol
folding stability dG unfold [2]: 0.116 ± 0.2 kcal/mol
folding stability dG unfold [3]: 0.12 ± 0.27 kcal/mol

SAGGSTVTVTVRRRVRVEVNGELREFEVEVTVTVRLPPPPPVIELPPEQVTRIEWDEETQELRVEVDSAGGS [r8_28_TrROS_Hall]
folding stability dG unfold [1]: 3.28 ± 0.21 kcal/mol
folding stability dG unfold [2]: 2.98 ± 0.21 kcal/mol
folding stability dG unfold [3]: 3.33 ± 0.063 kcal/mol

SAGGSVEFEETITDPLKSLEEAKALAEEIEAELKAKGYKVTVTVTVVPPGSVTATITVTTDPAKGKKASAGG [r13_697_JUSTAS]
folding stability dG unfold [1]: 0.82 ± 0.22 kcal/mol
folding stability dG unfold [2]: 0.822 ± 0.063 kcal/mol
folding stability dG unfold [3]: 1.34 ± 0.072 kcal/mol

SAGGSVEKKLLEYDPATGNRLVEVTAKAKPEVVEELIAKGYDPSTISPLGDGTVRALLTIPPDEKLDSAGGS [r16_755_JUSTAS]
folding stability dG unfold [1]: -0.248 ± 0.21 kcal/mol
folding stability dG unfold [2]: -0.295 ± 0.25 kcal/mol
folding stability dG unfold [3]: -0.332 ± 0.25 kcal/mol

SAGGSVEVEPLPNGLLRVTTVFSESKTPILRKLTYKDENGKPLGTKLELLPEEVEVESVTELLPPELLSAGG [r13_848_JUSTAS]
folding stability dG unfold [1]: 0.256 ± 0.079 kcal/mol
folding stability dG unfold [2]: -1.07 ± 0.29 kcal/mol
folding stability dG unfold [3]: 0.606 ± 0.11 kcal/mol

SAGGSVITEEEKEKIKKEYPNLDIKLKALKPGETITYPNGTKVYGSPNGFLVEITNPDGTKTVIKESAGGSA [r2_166_JUSTAS]
folding stability dG unfold [1]: 0.604 ± 0.11 kcal/mol
folding stability dG unfold [2]: 0.638 ± 0.026 kcal/mol
folding stability dG unfold [3]: 0.498 ± 0.16 kcal/mol

SAGGSVIVKLPNGKILEVSPSELAGYKPGAAVKFPDGTAQVVNPETDEVIDIPIDSPEKIIEAIKKAASAGG [r13_962_TrMRF]
folding stability dG unfold [1]: 0.163 ± 0.24 kcal/mol
folding stability dG unfold [2]: 0.0192 ± 0.1 kcal/mol
folding stability dG unfold [3]: 0.365 ± 0.077 kcal/mol

SAGGSVVPLPLDETVELTFDGTTATFTALPDGTATATFTGPDSTARATFPPDGAVTVTVPGAGTTAASAGGS [r16_725_JUSTAS]
folding stability dG unfold [1]: -0.404 ± 0.19 kcal/mol
folding stability dG unfold [2]: -1.18 ± 0.62 kcal/mol
folding stability dG unfold [3]: -0.268 ± 0.19 kcal/mol

SAGGSVVTIVEVVPEDKKIVIKAPGNPITIPLENIKEIKLIPEKGYLEITINNTTIKVPLNNPNSISAGGSA [r2_48_JUSTAS]
folding stability dG unfold [1]: 0.779 ± 0.071 kcal/mol
folding stability dG unfold [2]: 0.308 ± 0.051 kcal/mol
folding stability dG unfold [3]: 1.09 ± 0.058 kcal/mol

SAGGSWLPPGMWIISISIKWEMREMTFSPNGQPEMEMRLEIDIQVIKIPPPPPPPKEDAKNPNGKWSAGGSA [r2_495_TrROS]
folding stability dG unfold [1]: 1.66 ± 0.35 kcal/mol
folding stability dG unfold [2]: 0.946 ± 0.15 kcal/mol
folding stability dG unfold [3]: 2.22 ± 0.3 kcal/mol

SAGGSYTVEELPPGGILRITFTVPKSRPAEVPLELKAPDGTPVDVESYSITPVGDTNVITYTIKVPLSAGGS [r16_499_JUSTAS]
folding stability dG unfold [1]: 1.85 ± 0.11 kcal/mol
folding stability dG unfold [2]: 1.57 ± 0.049 kcal/mol
folding stability dG unfold [3]: 1.81 ± 0.15 kcal/mol

SAGGTATLVIPRIYKGSPEEAARAVQEIADALAALGYDVEVDATVYPVGDYLVVTVTVTVTAPPDSPLASAG [r5_217_TrMRF]
folding stability dG unfold [1]: 2.63 ± 0.15 kcal/mol
folding stability dG unfold [2]: 2.62 ± 0.099 kcal/mol
folding stability dG unfold [3]: 2.82 ± 0.046 kcal/mol

SAGGTIIINFTWSDIKDILDYLKDNKDWKITIWMGNKPVEYPLDDLEEILQNIPMPPGQPFWIEITPSAGGS [r16_377_TrROS]
folding stability dG unfold [1]: 4.36 ± 0.17 kcal/mol
folding stability dG unfold [2]: 3.38 ± 0.26 kcal/mol
folding stability dG unfold [3]: 4.32 ± 0.14 kcal/mol

SAGGTLEEFARDLAKELAKENGGKNVPFEIEIPVKMEWYPSPDGDPEPIMTHPMRIRIQFQIPPGQPSAGGS [r16_156_TrROS]
folding stability dG unfold [1]: 1.08 ± 0.15 kcal/mol
folding stability dG unfold [2]: 0.389 ± 0.11 kcal/mol
folding stability dG unfold [3]: 1.53 ± 0.14 kcal/mol

SAGGTLRNMPVEQIAKRLQNHGYEIKVENIRHNEDRVRIKIEVERRNKNGKPHEEVKISIEIPDPDDFSAGG [r13_566_TrROS]
folding stability dG unfold [1]: 0.559 ± 0.27 kcal/mol
folding stability dG unfold [2]: 0.461 ± 0.23 kcal/mol
folding stability dG unfold [3]: 0.403 ± 0.15 kcal/mol

SAGGTLTLLVEVDGLLVRVTAEVRLVYDPETDELTLEVRVRVEVRPLPAPPPPLVVVRDADGRLRLLSAGGS [r8_46_TrROS_Hall]
folding stability dG unfold [1]: 2.22 ± 0.08 kcal/mol
folding stability dG unfold [2]: 1.03 ± 0.095 kcal/mol
folding stability dG unfold [3]: 2.71 ± 0.042 kcal/mol

SAGGTMTIEAWVKYKDMTPEEMREQAKEIAENIMNMMRQRGFPIKKIEVDVEQDPGNGWVQVTIEIEFSAGG [r13_212_TrROS]
folding stability dG unfold [1]: 4.24 ± 0.18 kcal/mol
folding stability dG unfold [2]: 3.45 ± 0.15 kcal/mol
folding stability dG unfold [3]: 4.62 ± 0.13 kcal/mol

SAGGTPVVVPATITVPVPFGAPARVTIFTPEDGHVLALIELPDGAVLVATFDPTTGELHVAPYADAASAGGS [r16_735_TrMRF]
folding stability dG unfold [1]: 2.23 ± 0.14 kcal/mol
folding stability dG unfold [2]: 1.19 ± 0.061 kcal/mol
folding stability dG unfold [3]: 2.78 ± 0.06 kcal/mol

SAGGTVTIFIPGMSLDQIKKFIKFFRDNPDRPVTIHMPNGYMIEIDPKGKIDNIKVRRMPPMPEDDQSAGGS [r16_248_TrROS]
folding stability dG unfold [1]: 2.53 ± 0.12 kcal/mol
folding stability dG unfold [2]: 1.52 ± 0.036 kcal/mol
folding stability dG unfold [3]: 2.93 ± 0.046 kcal/mol
